Results published in the RNAGym collection of RNA variant scans (doi:10.7554/elife.80360).

B1: CPEB3 Ribozyme (parent)
chain: GGGGGCCACAGCAGAAGCGUUCACGUCGCGGCCCCUGUCAGAUUCUGGUGAAUCUGCGAAUUCUGCUGU

Variants of: B1
Assay: self-cleavage, relative activity (ratio to wild type); higher = more cleavage; co-transcriptional

Variant	self-cleavage
A10C C12G	0.659
A10C C12U	0.882
A10C C12A	0.439
C9U U61A	1
C9U U61G	0.985
A10G G48U	1
A10G G48A	0.898
A10G G48C	0.968
C9U C66U	1.05
A10U A42U	0.999
A10U A42G	0.899
A10G U36A	0.117
A10G U36G	0.155
A10G U36C	0.761
A10C A60G	0.853
A10C A60C	0.28
A10C A60U	0.484
A10G U55C	0.407
A10G U55A	0.407
A10U C24A	0.796
A10U C24U	0.82
A10U C24G	0.569
A10G U61G	0.468
A10G U61C	0.291

Variant	self-cleavage
C9U G11A	0.971
C9U G11C	0.927
C9U G31U	0.977
C9U G31C	0.38
C9U G31A	1
C9U G28C	0.173
C9U G28A	0.227
A10U C35U	0.976
A10C U67G	1.03
A10C U67C	1.01
A10C G56C	0.772
A10C G17C	0.0999
A10C G17A	0.48
A10G U62G	0.448
A10G U62A	0.578
A10G U44A	0.702
A10G U44C	0.498
A10C A13G	0.911
A10C A13C	0.638
A10C A13U	0.484
A10C C18G	0.196
A10G C24G	0.297
A10G C24U	0.186
A10G C24A	0.615

Variant	self-cleavage
C9U G30U	0.837
A10G A40G	0.728
A10G A40C	0.201
C9U U21C	0.999
A10C A16U	0.818
A10C A16G	0.967
A10C A16C	0.252
A10G G65C	0.288
A10C A15G	0.947
A10C A15U	0.77
A10C A15C	0.771
C9U G65C	0.802
C9U G65U	0.845
C9U U64G	0.981
C9U U64C	0.999
C9U U64A	1.04
C9U G14A	0.878
A10G A60G	0.656
A10U A13C	0.808
A10C U26A	0.943
A10C U26G	0.885
A10C U26C	1.02
A10G G11A	0.143
A10G G11C	0.79

Variant	self-cleavage
A10G G11U	0.743
A10C U55A	0.824
A10C U55C	0.911
A10C C63U	1.02
A10C C63A	0.676
A10U C22U	0.436
A10U C22G	0.174
A10G A23G	0.832
A10G A23U	0.748
A10G U20C	0.115
A10G U20G	0.135
A10G C66G	0.35
A10G C66U	0.645
A10C A51C	0.978
A10C A51U	1.02
A10C A51G	1.06
A10G C45A	0.784
A10G C45U	0.901
A10C G65U	0.655
A10C G65A	0.798
A10C G65C	0.637
A10G G68A	0.943
A10G G68C	0.941
A10G G68U	0.917

Variant	self-cleavage
A10G C29G	0.225
A10C G68U	1.03
A10C G68A	1.03
A10C G68C	1.04
A10G G28A	0.254
A10G G28U	0.142
C9U U67G	1.01
C9U U67C	1.02
C9U U67A	1.01
A10C G14U	0.411
A10C G14A	0.363
A10G C22G	0.145
A10G C22U	0.23
A10C C27A	0.666
A10C C27U	0.508
A10C C22U	0.351
A10C C22G	0.141
C9U G19U	0.855
C9U G19A	0.249
A10C U61A	0.937
A10C U61G	0.768
A10C U61C	0.763
A10U A60U	0.58
A10U A60C	0.384

Variant	self-cleavage
A10C G47A	1.04
A10C G47U	1.01
C9U U44A	1.02
C9U U44C	0.997
A10G G14A	0.195
A10G G14U	0.12
A10G U49G	0.907
A10G U49C	0.99
A10G U49A	0.932
A10C G25A	0.212
A10C G25C	0.103
C9U G41A	0.923
A10G U46G	0.901
A10G U46C	0.907
A10C C33G	0.988
A10C C33A	0.965
A10G A13C	0.182
A10U A15G	0.999
A10U A15U	0.772
A10G G58C	0.888
A10G G58A	0.969
A10C G19A	0.162
C9U U53A	0.961
C9U U53G	0.984

Variant	self-cleavage
C9U G37A	0.364
A10U C32U	1.02
A10U C32G	0.64
A10U C32A	0.93
A10C G28U	0.12
A10C G28A	0.125
C9U U69A	1.03
C9U U69G	1.07
A10G C57U	0.284
A10G C57A	0.322
A10G C57G	0.199
A10G A52U	0.834
A10G A52C	0.776
A10G C27A	0.857
A10G C27G	0.199
A10G U64A	0.33
A10G U64C	0.406
A10U C18G	0.182
A10G G50U	0.87
A10G G50C	0.818
A10G G37C	0.175
C9U G17A	0.817
A10C A23C	0.938
